T1: Activin A (UniProt P08476 311-426)
T1 sequence (looked up): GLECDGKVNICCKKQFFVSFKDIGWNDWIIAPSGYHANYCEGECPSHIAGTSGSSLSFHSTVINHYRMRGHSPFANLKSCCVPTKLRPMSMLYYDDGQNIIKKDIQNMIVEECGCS

T2: Activin B (UniProt P09529 293-407)
T2 sequence (looked up): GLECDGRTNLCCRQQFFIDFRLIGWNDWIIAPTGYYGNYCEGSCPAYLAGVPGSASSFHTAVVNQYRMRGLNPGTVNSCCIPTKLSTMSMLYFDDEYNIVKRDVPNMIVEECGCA

T3: GDF-11 (UniProt O95390 299-407)
T3 sequence (looked up): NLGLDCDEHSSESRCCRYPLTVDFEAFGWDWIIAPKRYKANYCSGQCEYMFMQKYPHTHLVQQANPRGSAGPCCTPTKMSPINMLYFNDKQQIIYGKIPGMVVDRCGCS

T4: BMP-9 (UniProt Q9UK05 320-429)
T4 sequence (looked up): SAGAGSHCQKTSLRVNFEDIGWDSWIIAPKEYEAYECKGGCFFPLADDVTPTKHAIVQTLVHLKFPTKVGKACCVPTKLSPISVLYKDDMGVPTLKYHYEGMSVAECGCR

T5: growth differentiation factor 8 (GDF-8) (UniProt O14793 267-375)
T5 construct: also called myostatin
T5 sequence (looked up): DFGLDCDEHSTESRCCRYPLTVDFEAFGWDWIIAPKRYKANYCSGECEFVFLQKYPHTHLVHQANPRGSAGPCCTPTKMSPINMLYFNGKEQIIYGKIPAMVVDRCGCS

T6: BMP-10 (UniProt O95393 317-424)
T6 sequence (looked up): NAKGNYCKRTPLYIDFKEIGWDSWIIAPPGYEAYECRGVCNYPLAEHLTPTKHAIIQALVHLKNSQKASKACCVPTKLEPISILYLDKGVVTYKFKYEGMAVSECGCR


Legend:
[1] = molecular target: T1, Activin A; assay: SPR (Biacore 8K), Fc protein captured on anti-human IgG, ligand injected
Description: (§1) The Cytiva Biacore 8k was used to measure the kinetics of the interactions between the ActRII- and chimera-Fc proteins and Activin A/Activin B/growth differentiation factor 8 (GDF-8)/GDF-11/BMP-9/BMP-10. Series S CM4 Sensor Chips were immobilized with anti-human capture antibody using the reagents and protocol in the Biacore Human Antibody Capture Kit (GE Life Sciences). Briefly, anti-human IgG was diluted to 25 μg/mL in immobilization buffer. The carboxylated surface of the sensor was activated by injecting a mixture of EDC and NHS. The anti-human IgG was injected into the activated sensor chip flow cells at 10 μL/min for a total of 7 minutes until the chip reached an immobilization level of 3000 resonance units (RU). Ethanolamine was injected to deactivate the sensor surfaces. The chip has 8 flow cells to be used for binding analysis, each with an in-line reference surface to subtract instrument noise and non-specific binding to the sensor chip. The ActRII- and chimera-Fc proteins were captured in their own flow cell to allow for a maximum analyte binding response of 20-30 RU. This was done by injecting 10-20 μL of the ActRII- and chimera-Fc proteins into the flow cells at a concentration of 2 μg/mL until 60-90 RU was captured. Ligand at a single concentration was injected at […] for 60 seconds and then allowed to dissociate under buffer flow for no less than 5 minutes. After the cycle completed, captured protein was stripped from the chip with an injection of 3 M magnesium chloride, the regeneration buffer provided with the Biacore Human Antibody Capture Kit. Each ligand was injected in a concentration series, including a buffer only 0 nM concentration to serve as a double reference for subtracting out instrument noise. The data were analyzed using the Biacore Insight Evaluation Software.

[2] = molecular target: T2, Activin B; assay: as above
Description: as §1

[3] = molecular target: T1, Activin A; assay: cell-based or functional assay
[4] = molecular target: T2, Activin B; assay: cell-based or functional assay
[5] = molecular target: T3, GDF-11; assay: cell-based or functional assay
[6] = molecular target: T4, BMP-9; assay: cell-based or functional assay
[7] = molecular target: T5, growth differentiation factor 8 (GDF-8); assay: SPR (Biacore 8K), Fc protein captured on anti-human IgG, ligand injected
Description: as §1

[8] = molecular target: T3, GDF-11; assay: as above
Description: as §1

[9] = molecular target: T4, BMP-9; assay: as above
Description: as §1

[10] = molecular target: T6, BMP-10; assay: as above
Description: as §1

Binder	Kd [1] [nM]	Kd [2] [nM]	IC50, SBE-luciferase reporter in HEK293 cells [3] [mg/L]	IC50, SBE-luciferase reporter in HEK293 cells [4] [mg/L]	IC50, SBE-luciferase reporter in HEK293 cells [5] [mg/L]	IC50, BRE-luciferase reporter in C2C12 cells [6] [mg/L]	Kd [7] [nM]	Kd [8] [nM]	Kd [9] [nM]	Kd [10] [nM]
ActRIIB (SEQ ID NO: 31) Fc protein (Fc fusion, also called ActRII-Fc; wild-type extracellular ActRIIB; not shown: linker (if any) and Fc domain) GRGEAETRECIYYNANWELERTNQSGLERCEGEQDKRLHCYASWRNSSGTIELVKKGCWLDDFNCYDRQECVATEENPQVYFCCCEGNFCNERFTHLPEAGGPEVTYEPPPTAPT	0.0106	< 0.001								
ActRIIB-A5 (SEQ ID NO: 123) chimera-Fc protein (Fc fusion, Tested as chimera-Fc protein; not shown: linker (if any) and Fc domain) GRGEAETRECIYYNANWELERTNQSGLERCEGEQDKRLHCYASWRNSSGTIELVKKGCWLDDINCYDRTDCVATEENPQVYFCCCEGNFCNERFTHLPEAGGPEVTYEPPPTAPT	0.0228	0.00491	0.057	0.072	0.13	0.4	0.0165	0.00566	0.143	0.0152
ActRIIB-B7 (SEQ ID NO: 115) chimera-Fc protein (Fc fusion, Tested as chimera-Fc protein; not shown: linker (if any) and Fc domain) GRGEAETRECIYYNANWELERTNQSGLERCEGEQDKRLHCYASWRNSSGTIELVKKGCWLDDFNCYDRQECVATEENPQVYFCCCEGNFCNEKFSYFPEAGGPEVTYEPPPTAPT	< 0.001	< 0.001	0.067	0.12	0.15	0.032	0.00346	< 0.001	0.0202	< 0.001
ActRIIB-B3 (SEQ ID NO: 112) chimera-Fc protein (Fc fusion, Tested as chimera-Fc protein; not shown: linker (if any) and Fc domain) GRGEAETRECIYYNANWELERTNQSGLERCEGEQDKRRHCFATWKNISGTIELVKKGCWLDDFNCYDRQECVATEENPQVYFCCCEGNFCNERFTHLPEAGGPEVTYEPPPTAPT	0.00152	0.00581	0.07	0.096	0.14	0.41	0.0104	0.00117	0.361	0.175
ActRIIB-A3 (SEQ ID NO: 122) chimera-Fc protein (Fc fusion, Tested as chimera-Fc protein; not shown: linker (if any) and Fc domain) GRGEAETRECIYYNANWELERTNQSGLERCYGDKDKRLHCYASWRNSSGTIELVKKGCWLDDFNCYDRQECVATEENPQVYFCCCEGNFCNERFTHLPEAGGPEVTYEPPPTAPT	0.0165	< 0.001	0.056	0.075	0.15	0.1	< 0.001	< 0.001	0.0123	0.0159
ActRIIB-B2 (SEQ ID NO: 111) chimera-Fc protein (Fc fusion, Tested as chimera-Fc protein; not shown: linker (if any) and Fc domain) GRGEAETRECIYYNANWELERTNQTGVEPCEGEQDKRLHCYASWRNSSGTIELVKKGCWLDDFNCYDRQECVATEENPQVYFCCCEGNFCNERFTHLPEAGGPEVTYEPPPTAPT	< 0.001	0.0116	0.14	0.17	0.27	0.3	< 0.001	< 0.001	0.00327	0.0205
ActRIIB-A2 (SEQ ID NO: 121) chimera-Fc protein (Fc fusion, Tested as chimera-Fc protein; not shown: linker (if any) and Fc domain) GRGEAETRECIYYNANWEKDRTNQSGLERCEGEQDKRLHCYASWRNSSGTIELVKKGCWLDDFNCYDRQECVATEENPQVYFCCCEGNFCNERFTHLPEAGGPEVTYEPPPTAPT	0.0347	0.00878	0.078	0.13	0.3	0.082	0.0393	< 0.001	0.0166	0.0298
ActRIIB-B1B7 (SEQ ID NO: 116) chimera-Fc protein (Fc fusion, Tested as chimera-Fc protein; not shown: linker (if any) and Fc domain) GRGEAETRECLFFNANWELERTNQSGLERCEGEQDKRLHCYASWRNSSGTIELVKKGCWLDDFNCYDRQECVATEENPQVYFCCCEGNFCNEKFSYFPEAGGPEVTYEPPPTAPT	< 0.001	< 0.001	0.094	0.18	0.14	0.067	0.00353	< 0.001	18.6	0.0156
ActRIIB-B5 (SEQ ID NO: 114) chimera-Fc protein (Fc fusion, Tested as chimera-Fc protein; not shown: linker (if any) and Fc domain) GRGEAETRECIYYNANWELERTNQSGLERCEGEQDKRLHCYASWRNSSGTIELVKKGCWLDDFNCYDRQECVEKEENPQVYFCCCEGNFCNERFTHLPEAGGPEVTYEPPPTAPT	0.00327	0.0158	0.069	0.11	0.096	0.022	0.0102	< 0.001	0.0632	0.0414

Results, then the binder that gave them:

Kd [1] [nM]	Kd [2] [nM]	IC50, SBE-luciferase reporter in HEK293 cells [3] [mg/L]	IC50, SBE-luciferase reporter in HEK293 cells [4] [mg/L]	IC50, SBE-luciferase reporter in HEK293 cells [5] [mg/L]	IC50, BRE-luciferase reporter in C2C12 cells [6] [mg/L]	Kd [7] [nM]	Kd [8] [nM]	Kd [9] [nM]	Kd [10] [nM]	Binder
0.0169	< 0.001	0.057	0.073	0.13	0.061	< 0.001	< 0.001	0.0191	0.00872	ActRIIB-A7 (SEQ ID NO: 125) chimera-Fc protein (Fc fusion, Tested as chimera-Fc protein; not shown: linker (if any) and Fc domain) GRGEAETRECIYYNANWELERTNQSGLERCEGEQDKRLHCYASWRNSSGTIELVKKGCWLDDFNCYDRQECVATEENPQVYFCCCEGNMCNERFTHLPEAGGPEVTYEPPPTAPT
0.0104	0.001	0.089	0.14	0.25	0.23	0.0288	< 0.001	0.00962	0.00969	ActRIIB-A6 (SEQ ID NO: 124) chimera-Fc protein (Fc fusion, Tested as chimera-Fc protein; not shown: linker (if any) and Fc domain) GRGEAETRECIYYNANWELERTNQSGLERCEGEQDKRLHCYASWRNSSGTIELVKKGCWLDDFNCYDRQECVATKDSPEVYFCCCEGNFCNERFTHLPEAGGPEVTYEPPPTAPT
0.0108	0.0702	0.35	0.34	0.77	0.39	0.0718	0.0292	0.0398	0.0761	ActRIIB-B1B4 (SEQ ID NO: 117) chimera-Fc protein (Fc fusion, Tested as chimera-Fc protein; not shown: linker (if any) and Fc domain) GRGEAETRECLFFNANWELERTNQSGLERCEGEQDKRLHCYASWRNSSGSIEIVKQGCWLDDFNCYDRQECVATEENPQVYFCCCEGNFCNERFTHLPEAGGPEVTYEPPPTAPT
		0.075	0.072	0.14	0.14					ActRIIB-A1 (SEQ ID NO: 120) chimera-Fc protein (Fc fusion, not shown: a dimerising Fc or GST) GAILGRSETQECIYYNANWELERTNQSGLERCEGEQDKRLHCYASWRNSSGTIELVKKGCWLDDFNCYDRQECVATEENPQVYFCCCEGNFCNERFTHLPEAGGPEVTYEPPPTAPT

Source: patent US20250270287A1 (KEROS THERAPEUTICS, published 2025)
